# Assay results published in patent publication US20240084003A1 (SIMCERE ZAIMING PHARMACEUTICAL, published 2024).
# T1: murine CD22 protein (ACROBiosystems, SI2-M52Ha) (murine, UniProt P35329 22-708)
# T1 construct: extracellular domain; also called murine CD22-ECD; murine CD22-ECD-His
# T1 sequence (looked up): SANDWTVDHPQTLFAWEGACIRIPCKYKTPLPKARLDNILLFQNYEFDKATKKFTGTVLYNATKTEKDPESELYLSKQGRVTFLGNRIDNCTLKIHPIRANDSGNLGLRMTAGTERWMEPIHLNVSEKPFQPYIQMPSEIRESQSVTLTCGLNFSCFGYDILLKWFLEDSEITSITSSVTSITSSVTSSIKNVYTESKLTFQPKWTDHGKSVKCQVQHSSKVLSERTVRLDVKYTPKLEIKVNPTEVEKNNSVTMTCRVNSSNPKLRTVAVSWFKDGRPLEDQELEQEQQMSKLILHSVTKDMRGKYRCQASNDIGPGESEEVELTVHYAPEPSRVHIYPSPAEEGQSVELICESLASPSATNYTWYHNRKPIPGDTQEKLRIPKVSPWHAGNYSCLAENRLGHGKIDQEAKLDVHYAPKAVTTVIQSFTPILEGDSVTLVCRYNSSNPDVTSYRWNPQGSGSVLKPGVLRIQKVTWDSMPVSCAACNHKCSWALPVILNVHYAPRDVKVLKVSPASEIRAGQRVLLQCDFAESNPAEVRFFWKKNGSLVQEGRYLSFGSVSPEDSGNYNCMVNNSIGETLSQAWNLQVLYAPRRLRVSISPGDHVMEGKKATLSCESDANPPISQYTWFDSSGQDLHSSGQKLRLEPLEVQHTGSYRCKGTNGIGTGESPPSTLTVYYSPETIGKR
# T2: human CD22, endogenous on Raji cells (human, UniProt P20273 20-847)
# T2 construct: whole, on cells; Endogenous protein of the Raji cell line
# T2 sequence (looked up): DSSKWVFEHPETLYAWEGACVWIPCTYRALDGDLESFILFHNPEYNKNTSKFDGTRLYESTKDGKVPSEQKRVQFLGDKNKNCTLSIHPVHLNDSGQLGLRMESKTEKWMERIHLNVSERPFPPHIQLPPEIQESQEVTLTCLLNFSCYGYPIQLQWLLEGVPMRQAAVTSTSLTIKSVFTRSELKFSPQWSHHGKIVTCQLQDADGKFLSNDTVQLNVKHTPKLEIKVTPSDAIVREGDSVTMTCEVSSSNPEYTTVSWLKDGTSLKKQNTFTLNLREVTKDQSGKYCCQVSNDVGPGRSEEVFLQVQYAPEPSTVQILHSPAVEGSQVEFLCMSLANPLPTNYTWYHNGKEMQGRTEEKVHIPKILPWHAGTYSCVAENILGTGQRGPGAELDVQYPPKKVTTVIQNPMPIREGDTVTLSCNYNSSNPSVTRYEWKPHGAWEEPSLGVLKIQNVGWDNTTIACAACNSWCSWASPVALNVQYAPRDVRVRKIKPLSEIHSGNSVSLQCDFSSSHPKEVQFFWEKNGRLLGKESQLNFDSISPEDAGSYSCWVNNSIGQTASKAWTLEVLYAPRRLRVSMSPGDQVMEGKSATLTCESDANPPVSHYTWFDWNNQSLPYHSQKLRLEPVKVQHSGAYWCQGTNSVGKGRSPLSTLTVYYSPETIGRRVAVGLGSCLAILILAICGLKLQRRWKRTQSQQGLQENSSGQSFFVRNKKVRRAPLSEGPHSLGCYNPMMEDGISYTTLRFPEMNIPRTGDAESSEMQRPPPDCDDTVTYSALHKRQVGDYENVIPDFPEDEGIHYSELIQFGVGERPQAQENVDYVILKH
# T3: human CD22, full length, on CHO-K1-human CD22 2C4 cells (human, UniProt P20273 20-847)
# T3 construct: Full-length human CD22 (NCBI NP_001762.2) stably transfected into CHO-K1
# T3 sequence: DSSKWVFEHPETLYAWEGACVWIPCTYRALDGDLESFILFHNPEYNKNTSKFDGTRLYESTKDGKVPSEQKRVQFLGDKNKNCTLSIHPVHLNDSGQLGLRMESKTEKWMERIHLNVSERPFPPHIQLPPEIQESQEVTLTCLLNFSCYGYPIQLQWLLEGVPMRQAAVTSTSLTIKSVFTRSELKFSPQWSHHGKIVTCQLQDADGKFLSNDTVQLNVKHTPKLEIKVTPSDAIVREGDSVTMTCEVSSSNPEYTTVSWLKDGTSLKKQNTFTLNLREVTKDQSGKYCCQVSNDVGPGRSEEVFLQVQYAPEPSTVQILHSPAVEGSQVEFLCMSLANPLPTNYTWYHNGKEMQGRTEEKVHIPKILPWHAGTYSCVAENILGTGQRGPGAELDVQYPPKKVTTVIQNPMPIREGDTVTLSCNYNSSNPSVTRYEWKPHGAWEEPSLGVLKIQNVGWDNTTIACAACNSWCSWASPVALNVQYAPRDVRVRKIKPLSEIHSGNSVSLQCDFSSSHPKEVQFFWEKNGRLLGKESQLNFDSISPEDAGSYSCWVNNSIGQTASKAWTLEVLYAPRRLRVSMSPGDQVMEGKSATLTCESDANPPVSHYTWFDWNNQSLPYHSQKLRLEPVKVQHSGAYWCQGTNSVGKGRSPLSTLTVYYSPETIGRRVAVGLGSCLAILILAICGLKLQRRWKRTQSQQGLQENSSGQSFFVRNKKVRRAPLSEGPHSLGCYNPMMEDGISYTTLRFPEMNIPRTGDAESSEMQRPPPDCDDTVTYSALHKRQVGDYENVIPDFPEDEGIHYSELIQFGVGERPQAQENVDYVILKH
# Tests used:
# [1] = biological target: T1, murine CD22 protein (ACROBiosystems, …); assay: ELISA, coated murine CD22, 0.001 nM Ab
# Experimental: (§1) In order to detect the binding activity of CD22 human-murine chimeric antibodies to CD22 protein, the purified human CD22-ECD-His protein obtained in Example 2 was diluted with PBS to a final concentration of 2 μg/mL, and then added to 96-well ELISA plate at 100 μl/well. The plate was sealed with plastic film and incubated overnight at 4° C., the plate was washed 2 times with PBS the next day, and then a blocking solution [PBS+2% (w/w) BSA] was added for blocking at room temperature for 2 hours. […] After incubation at 37° C. for 2 hours, the plate was washed 3 times with PBS. HRP (horseradish peroxidase)-labeled secondary antibody (purchased from Sigma, catalog number: A0170) was added, and incubated at 37° C. for 2 hours, and the plate was washed 5 times with PBS. TMB substrate was added at 50 μl/well, and incubated at room temperature for 30 minutes, then a stop solution (1.0 N HCl) was added at 50 μl/well.
# (§2) In order to detect the species cross-binding activity of the chimeric antibodies, an ELISA plate was coated with commercial murine CD22 protein (ACROBiosystems, catalog number: SI2-M52Ha) and monkey CD22 protein (ACROBiosystems, catalog number: SI2-R52Ha), respectively, and the ELISA detection was performed according to the method in Example 5.1.
# [2] = biological target: T1, murine CD22 protein (ACROBiosystems, …); assay: ELISA, coated murine CD22, 0.1 nM Ab
# Experimental: as §1, §2
# [3] = biological target: T2, human CD22, endogenous on Raji cells; assay: FACS, Raji cells
# Source text: (§3) The required cells were scale-up cultured in a T-75 cell culture flask to the logarithmic growth phase. For the adherent cell CHO-K1, the medium was aspirated, the cells were washed 2 times with PBS buffer, and then digested with trypsin. After the digestion was terminated, the cells were washed 2 times with PBS buffer. For suspension cell Raji, the medium supernatant was directly centrifuged and discarded, and the cell pellet was washed 2 times with PBS. After counting the cells in the previous step, the cell pellet was resuspended with [PBS+2% (w/w) BSA] blocking solution to 2×10⁶ cells/ml, and added to a 96-well FACS reaction plate at 50 μl/well, and then the chimeric antibody test sample was added at 50 μl/well, and incubated on ice for 2 hours. The mixture was centrifuged and washed 3 times with PBS buffer, Alexa Flour 488-labeled secondary antibody (purchased from Invitrogen, catalog number: A-11013) was added at 50 μl/well, and incubated on ice for 1 hour. The obtained mixture was centrifuged and washed 5 times with PBS, and FACS (FACS Canto™, purchased from BD Company) was used for detection and result analysis. Data analysis was performed by software (CellQuest) to obtain the mean fluorescence density (MFI)of the cells. And then software (GraphPad Prism8) was used for analysis, data fitting, and EC50 value calculation. […] The same method was used to detect the binding of the chimeric antibodies to endogenous CD22-negative cell MoLT4 cells (purchased from ATCC, CRL-1582) and CHO-K1 cells.
# [4] = biological target: T1, murine CD22 protein (ACROBiosystems, …); assay: ELISA, coated murine CD22, 0.00001 nM Ab
# Experimental: as §1, §2
# [5] = biological target: T3, human CD22, full length, on …; assay: FACS, CHO-K1-human CD22 2C4 cells
# Source text: as §3
# [6] = biological target: T1, murine CD22 protein (ACROBiosystems, …); assay: ELISA, coated murine CD22, 10 nM Ab
# Experimental: as §1, §2
# [7] = biological target: T1, murine CD22 protein (ACROBiosystems, …); assay: ELISA, coated murine CD22, 0.0001 nM Ab
# Experimental: as §1, §2
# [8] = biological target: T1, murine CD22 protein (ACROBiosystems, …); assay: ELISA, coated murine CD22, 0.01 nM Ab
# Experimental: as §1, §2
# [9] = biological target: T1, murine CD22 protein (ACROBiosystems, …); assay: ELISA, coated murine CD22, 100 nM Ab
# Experimental: as §1, §2
Binder,OD450 [1],OD450 [2],EC50 [3],Maximum mean fluorescence intensity [3],OD450 [4],EC50 [5],Maximum mean fluorescence intensity [5],OD450 [6],OD450 [7],OD450 [8],OD450 [9]
"F1.192.1 human-murine chimeric antibody (antibody, human IgG1, kappa, V domains shown, Chimeric, human IgG1 / kappa) VH: AVQLQQSGVELVRPGASVKLSCTGSDFNIKEDYIHWVKQRPEQGLEWIGWIDPENGDTEYASKFQGKATITADTSSNTAYLQLSSLTSEDTAVYYCATYGSLDYWGQGTTLTVSS VL: DIKMTQSPSSMYAFLGERVTITCKASQGINSFLTWFQQKPGKSPKTLIYRANRLVDGVPSRFSGSGSGQDYSLTISSLEYEDVGIYYCLQYDEFPRTFGGGTKLEIKR",0.06 OD450,0.07 OD450,0.37 nM,24400 MFI,0.07 OD450,0.81 nM,27200 MFI,0.08 OD450,0.07 OD450,0.07 OD450,0.08 OD450
"F1.200.11 human-murine chimeric antibody (antibody, human IgG1, kappa, V domains shown, Chimeric, human IgG1 / kappa) VH: QNQLVQSGPELKKPGETVKISCKASGYTFTTAGMQWVQKMPGKGFKWIGWINTLSGEPKYAEDFKGRFAFSLETSATTAYLQISNLKNEDTATYFCARAYYSNLYWYFDVWGTGTTVTVSS VL: DIVMTQSQKFMSTTVGDRVTITCKASQNVVTAVAWYQQKPGQSPKVLIYSASNRYSGVPDRFTGSGSGTDFTLTISNMHSEDLANYFCHQYSSYPFTFGSGTKLEIKR",0.05 OD450,0.05 OD450,2.41 nM,20800 MFI,0.06 OD450,11.2 nM,23000 MFI,0.06 OD450,0.05 OD450,0.05 OD450,0.07 OD450
"F1.216.2 human-murine chimeric antibody (antibody, human IgG1, kappa, V domains shown, Chimeric, human IgG1 / kappa) VH: QVQLQQSGPEVVRPGASVKISCKASGYAFSSSWMNWMKQRPGKALEWIGRIYPGDGDTNYSGEFKVKATLTADKSSSTAYMQLSSLTSEDSAVYFCAREGSYYSNPWYFDYWGQGTTLTVSS VL: DVLVTQTPLSLPVSLGDQASISCRSSQSIVQSNGDTYLEWYLQKPGQSPKLLIYKVSNRFSGVPDRFSGSGSGTDFTLKISRVEAEDLGVYYCFQGSHVPFTFGSGTKLEIKR",0.05 OD450,0.05 OD450,0.16 nM,25300 MFI,0.06 OD450,0.32 nM,31500 MFI,0.06 OD450,0.06 OD450,0.05 OD450,0.08 OD450
"F1.120.15 human-murine chimeric antibody (antibody, human IgG1, kappa, V domains shown, Chimeric, human IgG1 / kappa) VH: QVQLQQSGPELVKPGASVKISCKASGNAFSNSWMNWVKQRPGKGLEWIGRVYSEDGDTQYNGKFRDKATLTADRSTSTAYMQLSSLTSEDSAVYFCARWLIYYGTYGAMDYWGQGTSVTVSS VL: DIQMTQTTSSLSASLGDRVTISCRASQDINNYLNWYHQKPDGTVKLLIYFTSRPYSGVPSRFSGSGSGTDYSLTISNLEQEDIATYFCQQGNTLPWTFGGGTKLEIKR",0.05 OD450,0.05 OD450,0.89 nM,23700 MFI,0.06 OD450,1.07 nM,27900 MFI,0.06 OD450,0.05 OD450,0.05 OD450,0.06 OD450

# Continued, values first:
OD450 [1],OD450 [2],EC50 [3],Maximum mean fluorescence intensity [3],OD450 [4],EC50 [5],Maximum mean fluorescence intensity [5],OD450 [6],OD450 [7],OD450 [8],OD450 [9],Binder
0.05 OD450,0.05 OD450,0.16 nM,25000 MFI,0.06 OD450,0.49 nM,37400 MFI,0.06 OD450,0.05 OD450,0.05 OD450,0.06 OD450,"F1.250.16 human-murine chimeric antibody (antibody, human IgG1, kappa, V domains shown, Chimeric, human IgG1 / kappa; VL tied by name) VH: QVQLQQSGAEQVKPGASVKMSCKASGYTFTTYPIEWMKQNHGESLDWIGNIHPYNDDTEYNEKFKGKATLTVEKSSNTVFLELSRLTSDDSAVYYCVRGDYYNSRYWYFDVWGTGTTVTVSS VL: DIVMTQSQKFMSTTVGDRVSITCKAGQNVRTAVAWYQQKPGQSPKLLIYSASTRYIGVPERFTGSGSGTDFTLTITNMQSEDLADYFCQQYSSFPLTFGTGTKLELKR"
0.05 OD450,0.05 OD450,0.5 nM,25000 MFI,0.06 OD450,0.92 nM,43800 MFI,0.07 OD450,0.05 OD450,0.05 OD450,0.16 OD450,"F1.280.1 human-murine chimeric antibody (antibody, human IgG1, kappa, V domains shown, Chimeric, human IgG1 / kappa) VH: QIQLVQSGPELKKPGETVKISCKASGYTFTTYGMSWVKQTPGKGLTWMGWINTDSGVPTYADDFKRRFAFSLEASATTAYLQINNLKNEDTATYFCARGGPDYWGQGTTLTVSS VL: DILLTQSPATLSVTPGETVSLSCRASQSIYKNLHWYHQKSHRSPRLLIKYASDSISGIPSRFTGSGSGTNFTLSINSVKPEDEGIYYCLQGYIVPLTFGAGTKLELKR"
